Experimental data published in the supplement of paper PMC9170038.

Tests used:
MS2 coat protein [1] = test: apparent KD of MS2 coat protein, switch OFF state (with FMN for OFF switches, without FMN for ON switches); designed switch direction (-1 OFF switch, 1 ON switch): -1; higher = weaker reporter binding; settings: FMN input: 0 or 200 uM; Eterna round: R93 (includes R88 designs)
How it was run: (§1)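 Designed RNA switches were transcribed on-chip from Illumina sequencing clusters and titrated with SNAP-549-labelled MS2 coat protein in twofold steps from 0.7 or 1.5 nM up to 3 µM. Each step lasted 0.8–1.5 h at first and 10–20 min by the end, in 100 mM Tris-HCl pH 7.5, 80 mM KCl and 4 mM MgCl2, without or with constant ligand. Apparent KD is the median, for each design, of fits to normalised cluster binding curves.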

MS2 coat protein [2] = test: apparent KD of MS2 coat protein, switch ON state; designed switch direction (-1 OFF switch, 1 ON switch): -1; higher = weaker reporter binding; settings: FMN input: 0 or 200 uM; Eterna round: R93 (includes R88 designs)
How it was run: as §1

Row | Sequence | apparent KD of MS2 coat protein (MS2 coat protein [1]) [nM] | apparent KD of MS2 coat protein (MS2 coat protein [2]) [nM]
1 | CAAAGGUGAGGAUAUACGAGGAUAUGACGAAAGUCAUAAAAACAUGAGGAUCACCCAUGUAGAAGGCACCACAA [E2 64% 5] | 32.8 | 27.8
2 | GGUUGGCGAGGAUAUACAUGAGGAUCACCCAUGUGAGAGAAAAAAGUAAGAAAGAAAAGUAGAAGGCGCUGACG [salish99-ex3-51] | 87.8 | 30.7
3 | AAAAAGGCAGGAUAUACAUGAGGAUCACCCAUGUAGUUGACAAAAAAGAGUCAACAGUGUAGAAGGGCCAAAAA [Exclusion3-cac1] | 22.1 | 18.1
4 | AAUACACAUGAGGAUCACCCAUGUAAGGAUAUCGAAAAAAAACUAAACAAAAAACAAACGAGAAGGUACAAAAA [Exclusion 1 design 4] | 23.9 | 30.4
5 | AACAUGUCAGGAUAUGUAGCAAAAGGUGAUCAAAAAAAGCUACAGAAGGGACAUGAGGAUCACCCAUGUAAAAA [Ex4: 934] | 37.1 | 126
6 | AAGAAGAAAGGAUAUACAAGGAAGAAAGAAAAGAAAAGAAAACAUGAGGAUCACCCAUGUAGAAGGUUCUAGAA [EteRNA is fun!] | 9.5 | 15.2
7 | AAAAGGAUAGGAUAUACAUGAGGAUCACCCAUGUGAAUAAAUAAAAGAAAUAAAGAAAGUAGAAGGGUCAAGAA | 22 | 25.8
8 | AAAAAUGGAGGAUAUACAUGAGGAUCACCCAUGUGUGGCCAUACUAUGUGGUCGUCAGGUAGAAGGCCAAAAAA [Gilly Gone Silly 23 - Jieux - Exclusion 3] | 178 | 24.9
9 | AAAAAAGGAGGAUAUACGAACAUGUCGAAAGACGUGAAGGGACAUGAGGAUCACCCAUGUAGAAGGUUUAAAAA [Mat - Exclusion 2 - JL mod - D85] | 19.2 | 35.9
10 | AAGAAGACAGGAUAUACAUGAGGAUCACCCAUGUAAAAGAAAGAAGGGAAAGAGAAAAGUAGAAGGGUCAAGAA [Menkheperre Ini] | 25.3 | 23.6
11 | AACAAGUGAGGAUAUGAAAAUAAAACAAACAAACAAAUAAAUCAGAAGGCACAUGAGGAUCACCCAUGUAAAAA [JR_Exc004_Sub1203] | 18.5 | 17.1
12 | UCACACCUAGGAUAUACAUGAGGAUCACCCAUGUGGCACUCCGCAGGCAGUGUUCCCAGUAGAAGGAGGACACG [Ricere] | 22.4 | 27.8
13 | AAAAAAAAAGGAUAUACAGGAGGUAAGGUCGGACAAAAAAGACAUGAGGAUCACCCAUGUAGAAGGUUUAAAAA [Excls2-X] | 35.1 | 39.4
14 | AAAAACCUAGGAUAUACAUGAGGAUCACCCAUGUAAAGAAACAACAAGGGAAACACACGUAGAAGGAGGAAGAA [JR_Exc003_Sub1204] | 74.8 | 24.5
15 | AAAGGACGAGGAUAUACAUGAGGAUCACCCAUGUAAAAAACAUAAAAAAAGAACUUAUGUAGAAGGCGUCCAAA [69%, Moding Meechl, 3] | 399 | 52.7
16 | AAAAAGGGAGGAUAUACAGGAGGUAAGGUCAAAAAAAAAAAACAUGAGGAUCACCCAUGUAGAAGGUUUAAAAA [Ecls2-V] | 31 | 25.8
17 | UACGUAUGAGGAUAUACAAACAGAAAAAUCAGACAUAACUGACAUGAGGAUCACCCAUGUAGAAGGCAUAUACA [JR_Exc002_Sub904] | 17.4 | 25.3
18 | AAAGUGUCAGGAUAUGCGAAGGCAUCUGACAGAUGAGGAUCGCAGAAGGGACAUGAGGAUCACCCAUGUAAAAA | 117 | 65.6
19 | GAGAGGGCAGGAUAUGCGGAGAGAGAGAGAGAGAGAGAGAGACAUGAGGAUCACCCAUGUAGAAGGGCCGAGAG [salish99-ex2-09] | 28.1 | 62.3
20 | AAAAAACAUGAGGAUCACCCAUGUCAGGAUAUCCGGUUCAAAAAAAAAAAAAGGCGUUGGAGAAGGGACAUUCC [Chica Displaced 10 - Jieux - Exclusion 1] | 36.4 | 28
21 | AAAAAACAUGAGGAUCACCCAUGUUAGGAUAUGCUAUGGAAAAUAAAAAUAAAACAUAGCAGAAGGAACAAAAA [Denovo 2] | 36.9 | 18.6
22 | AUAGGCCUAGGAUAUACAUGAGGAUCACCCAUGUUAAUAAUUCAAACAUGAUAAACGUGUAGAAGGAGGAAUAA [JR_Exc003_Sub302] | 65.3 | 40.8
23 | AAGAACUCAGGAUAUACAUGAGGAUCACCCAUGUAAAAGAAAGAGGGAAAAGAGAAAAGUAGAAGGGAGAAGAA [Ptolemy IV Philopator] | 46.9 | 14
